Test results reported in patent publication US20130316941A1 (Boehringer Ingelheim, published 2013).

Key:
[1] = molecular target: human glucagon-like peptide 1 receptor (GLP-1R) (human, UniProt P43220 24-463); test: cell-based or functional assay
[2] = molecular target: human glucagon receptor (Glucagon-R) (human, UniProt P47871 26-477); test: cell-based or functional assay
Chain of human glucagon receptor (Glucagon-R) (P47871 26-477): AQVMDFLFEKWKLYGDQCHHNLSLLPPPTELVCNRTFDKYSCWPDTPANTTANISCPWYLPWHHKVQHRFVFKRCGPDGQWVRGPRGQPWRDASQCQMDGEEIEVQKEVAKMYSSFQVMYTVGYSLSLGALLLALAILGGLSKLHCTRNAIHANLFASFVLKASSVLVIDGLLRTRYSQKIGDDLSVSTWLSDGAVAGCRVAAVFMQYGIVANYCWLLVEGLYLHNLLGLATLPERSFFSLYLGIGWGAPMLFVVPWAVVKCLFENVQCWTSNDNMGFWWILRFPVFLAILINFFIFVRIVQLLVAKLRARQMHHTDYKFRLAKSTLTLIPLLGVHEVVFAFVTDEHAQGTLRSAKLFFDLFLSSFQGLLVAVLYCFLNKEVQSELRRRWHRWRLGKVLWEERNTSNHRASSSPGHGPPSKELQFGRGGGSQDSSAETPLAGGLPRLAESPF

Binder	EC50 values for cAMP generation in HEK293 cells expressing GLP-1 receptor [1]	EC50 values for cAMP generation in HEK293 cells expressing Glucagon receptor [2]
HSQGTFTSDYSKYLDERRAKDFIKWLLSA (HELM PEPTIDE1{H.S.Q.G.T.F.T.S.D.Y.S.K.Y.L.D.E.R.R.A.K.D.F.I.K.W.L.L.S.A.[am]}|PEPTIDE2{[CCCCCCCCCCCCCCCC(=O)[*:2]].[gGlu]}$PEPTIDE1,PEPTIDE2,24:R3-2:R2$$$V2.0; SMILES CCCCCCCCCCCCCCCC(=O)N[C@@H](CCC(=O)NCCCC[C@H](NC(=O)[C@@H](NC(=O)[C@H](Cc1ccccc1)NC(=O)[C@H](CC(=O)O)NC(=O)[C@H](CCCCN)NC(=O)[C@H](C)NC(=O)[C@H](CCCNC(=N)N)NC(=O)[C@H](CCCNC(=N)N)NC(=O)[C@H](CCC(=O)O)NC(=O)[C@H](CC(=O)O)NC(=O)[C@H](CC(C)C)NC(=O)[C@H](Cc1ccc(O)cc1)NC(=O)[C@H](CCCCN)NC(=O)[C@H](CO)NC(=O)[C@H](Cc1ccc(O)cc1)NC(=O)[C@H](CC(=O)O)NC(=O)[C@H](CO)NC(=O)[C@@H](NC(=O)[C@H](Cc1ccccc1)NC(=O)[C@@H](NC(=O)CNC(=O)[C@H](CCC(N)=O)NC(=O)[C@H](CO)NC(=O)[C@@H](N)Cc1c[nH]cn1)[C@@H](C)O)[C@@H](C)O)[C@@H](C)CC)C(=O)N[C@@H](Cc1c[nH]c2ccccc12)C(=O)N[C@@H](CC(C)C)C(=O)N[C@@H](CC(C)C)C(=O)N[C@@H](CO)C(=O)N[C@@H](C)C(N)=O)C(=O)O) [H-HSQGTFTSDYSKYLDERRAKDFI-K(Hexadecanoyl-isoGlu)-WLLSA-NH2 [Compound 4]]	1.31 nM	0.79 nM
HSHGTFTSDYSKYLDEKRAKDFIEWLLSA (HELM PEPTIDE1{H.S.H.G.T.F.T.S.D.Y.S.K.Y.L.D.E.K.R.A.K.D.F.I.E.W.L.L.S.A.[am]}|PEPTIDE2{[CCCCCCCCCCCCCCCC(=O)[*:2]].[gGlu]}$PEPTIDE1,PEPTIDE2,17:R3-2:R2$$$V2.0; SMILES CCCCCCCCCCCCCCCC(=O)N[C@@H](CCC(=O)NCCCC[C@H](NC(=O)[C@H](CCC(=O)O)NC(=O)[C@H](CC(=O)O)NC(=O)[C@H](CC(C)C)NC(=O)[C@H](Cc1ccc(O)cc1)NC(=O)[C@H](CCCCN)NC(=O)[C@H](CO)NC(=O)[C@H](Cc1ccc(O)cc1)NC(=O)[C@H](CC(=O)O)NC(=O)[C@H](CO)NC(=O)[C@@H](NC(=O)[C@H](Cc1ccccc1)NC(=O)[C@@H](NC(=O)CNC(=O)[C@H](Cc1c[nH]cn1)NC(=O)[C@H](CO)NC(=O)[C@@H](N)Cc1c[nH]cn1)[C@@H](C)O)[C@@H](C)O)C(=O)N[C@@H](CCCNC(=N)N)C(=O)N[C@@H](C)C(=O)N[C@@H](CCCCN)C(=O)N[C@@H](CC(=O)O)C(=O)N[C@@H](Cc1ccccc1)C(=O)N[C@H](C(=O)N[C@@H](CCC(=O)O)C(=O)N[C@@H](Cc1c[nH]c2ccccc12)C(=O)N[C@@H](CC(C)C)C(=O)N[C@@H](CC(C)C)C(=O)N[C@@H](CO)C(=O)N[C@@H](C)C(N)=O)[C@@H](C)CC)C(=O)O) [H-HSHGTFTSDYSKYLDE-K(Hexadecanoyl-isoGlu)-RAKDFIEWLLSA-NH2 [Compound 18]]	0.09 nM	0.09 nM
HXQGTFTSDYSKYLDERRAKDFIEWLLSA (HELM PEPTIDE1{H.[Aib].Q.G.T.F.T.S.D.Y.S.K.Y.L.D.E.R.R.A.K.D.F.I.E.W.L.L.S.A.[am]}|PEPTIDE2{[CCCCCCCCCCCCCCCC(=O)[*:2]].[gGlu]}$PEPTIDE1,PEPTIDE2,20:R3-2:R2$$$V2.0; SMILES CCCCCCCCCCCCCCCC(=O)N[C@@H](CCC(=O)NCCCC[C@H](NC(=O)[C@H](C)NC(=O)[C@H](CCCNC(=N)N)NC(=O)[C@H](CCCNC(=N)N)NC(=O)[C@H](CCC(=O)O)NC(=O)[C@H](CC(=O)O)NC(=O)[C@H](CC(C)C)NC(=O)[C@H](Cc1ccc(O)cc1)NC(=O)[C@H](CCCCN)NC(=O)[C@H](CO)NC(=O)[C@H](Cc1ccc(O)cc1)NC(=O)[C@H](CC(=O)O)NC(=O)[C@H](CO)NC(=O)[C@@H](NC(=O)[C@H](Cc1ccccc1)NC(=O)[C@@H](NC(=O)CNC(=O)[C@H](CCC(N)=O)NC(=O)C(C)(C)NC(=O)[C@@H](N)Cc1c[nH]cn1)[C@@H](C)O)[C@@H](C)O)C(=O)N[C@@H](CC(=O)O)C(=O)N[C@@H](Cc1ccccc1)C(=O)N[C@H](C(=O)N[C@@H](CCC(=O)O)C(=O)N[C@@H](Cc1c[nH]c2ccccc12)C(=O)N[C@@H](CC(C)C)C(=O)N[C@@H](CC(C)C)C(=O)N[C@@H](CO)C(=O)N[C@@H](C)C(N)=O)[C@@H](C)CC)C(=O)O) [H-H-Aib-QGTFTSDYSKYLDERRA-K(Hexadecanoyl-isoGlu)-DFIEWLLSA-NH2 [Compound 2]]	0.36 nM	0.35 nM
HSPGTFTSDYSKYLDEKRAKDFIEWLLSA (HELM PEPTIDE1{H.[dS].P.G.T.F.T.S.D.Y.S.K.Y.L.D.E.K.R.A.K.D.F.I.E.W.L.L.S.A.[am]}|PEPTIDE2{[CCCCCCCCCCCCCCCC(=O)[*:2]].[gGlu]}$PEPTIDE1,PEPTIDE2,17:R3-2:R2$$$V2.0; SMILES CCCCCCCCCCCCCCCC(=O)N[C@@H](CCC(=O)NCCCC[C@H](NC(=O)[C@H](CCC(=O)O)NC(=O)[C@H](CC(=O)O)NC(=O)[C@H](CC(C)C)NC(=O)[C@H](Cc1ccc(O)cc1)NC(=O)[C@H](CCCCN)NC(=O)[C@H](CO)NC(=O)[C@H](Cc1ccc(O)cc1)NC(=O)[C@H](CC(=O)O)NC(=O)[C@H](CO)NC(=O)[C@@H](NC(=O)[C@H](Cc1ccccc1)NC(=O)[C@@H](NC(=O)CNC(=O)[C@@H]1CCCN1C(=O)[C@@H](CO)NC(=O)[C@@H](N)Cc1c[nH]cn1)[C@@H](C)O)[C@@H](C)O)C(=O)N[C@@H](CCCNC(=N)N)C(=O)N[C@@H](C)C(=O)N[C@@H](CCCCN)C(=O)N[C@@H](CC(=O)O)C(=O)N[C@@H](Cc1ccccc1)C(=O)N[C@H](C(=O)N[C@@H](CCC(=O)O)C(=O)N[C@@H](Cc1c[nH]c2ccccc12)C(=O)N[C@@H](CC(C)C)C(=O)N[C@@H](CC(C)C)C(=O)N[C@@H](CO)C(=O)N[C@@H](C)C(N)=O)[C@@H](C)CC)C(=O)O) [H-H-DSer-PGTFTSDYSKYLDE-K(Hexadecanoyl-isoGlu)-RAKDFIEWLLSA-NH2 [Compound 21]]	0.08 nM	0.21 nM
HXQGTFTSDYSRYLDEKRAKDFIEWLLSA (HELM PEPTIDE1{H.[Aib].Q.G.T.F.T.S.D.Y.S.R.Y.L.D.E.K.R.A.K.D.F.I.E.W.L.L.S.A.[am]}|PEPTIDE2{[CCCCCCCCCCCCCCCC(=O)[*:2]].[gGlu]}$PEPTIDE1,PEPTIDE2,17:R3-2:R2$$$V2.0; SMILES CCCCCCCCCCCCCCCC(=O)N[C@@H](CCC(=O)NCCCC[C@H](NC(=O)[C@H](CCC(=O)O)NC(=O)[C@H](CC(=O)O)NC(=O)[C@H](CC(C)C)NC(=O)[C@H](Cc1ccc(O)cc1)NC(=O)[C@H](CCCNC(=N)N)NC(=O)[C@H](CO)NC(=O)[C@H](Cc1ccc(O)cc1)NC(=O)[C@H](CC(=O)O)NC(=O)[C@H](CO)NC(=O)[C@@H](NC(=O)[C@H](Cc1ccccc1)NC(=O)[C@@H](NC(=O)CNC(=O)[C@H](CCC(N)=O)NC(=O)C(C)(C)NC(=O)[C@@H](N)Cc1c[nH]cn1)[C@@H](C)O)[C@@H](C)O)C(=O)N[C@@H](CCCNC(=N)N)C(=O)N[C@@H](C)C(=O)N[C@@H](CCCCN)C(=O)N[C@@H](CC(=O)O)C(=O)N[C@@H](Cc1ccccc1)C(=O)N[C@H](C(=O)N[C@@H](CCC(=O)O)C(=O)N[C@@H](Cc1c[nH]c2ccccc12)C(=O)N[C@@H](CC(C)C)C(=O)N[C@@H](CC(C)C)C(=O)N[C@@H](CO)C(=O)N[C@@H](C)C(N)=O)[C@@H](C)CC)C(=O)O) [H-H-Aib-QGTFTSDYSRYLDE-K(Hexadecanoyl-isoGlu)-RAKDFIEWLLSA-NH2 [Compound 16]]	0.06 nM	0.11 nM
HSQGTFTSDYSRYLDEKRARDFIEWLLSA (HELM PEPTIDE1{H.S.Q.G.T.F.T.S.D.Y.S.R.Y.L.D.E.K.R.A.R.D.F.I.E.W.L.L.S.A.[am]}|PEPTIDE2{[CCCCCCCCCCCCCCCC(=O)[*:2]].[gGlu]}$PEPTIDE1,PEPTIDE2,17:R3-2:R2$$$V2.0; SMILES CCCCCCCCCCCCCCCC(=O)N[C@@H](CCC(=O)NCCCC[C@H](NC(=O)[C@H](CCC(=O)O)NC(=O)[C@H](CC(=O)O)NC(=O)[C@H](CC(C)C)NC(=O)[C@H](Cc1ccc(O)cc1)NC(=O)[C@H](CCCNC(=N)N)NC(=O)[C@H](CO)NC(=O)[C@H](Cc1ccc(O)cc1)NC(=O)[C@H](CC(=O)O)NC(=O)[C@H](CO)NC(=O)[C@@H](NC(=O)[C@H](Cc1ccccc1)NC(=O)[C@@H](NC(=O)CNC(=O)[C@H](CCC(N)=O)NC(=O)[C@H](CO)NC(=O)[C@@H](N)Cc1c[nH]cn1)[C@@H](C)O)[C@@H](C)O)C(=O)N[C@@H](CCCNC(=N)N)C(=O)N[C@@H](C)C(=O)N[C@@H](CCCNC(=N)N)C(=O)N[C@@H](CC(=O)O)C(=O)N[C@@H](Cc1ccccc1)C(=O)N[C@H](C(=O)N[C@@H](CCC(=O)O)C(=O)N[C@@H](Cc1c[nH]c2ccccc12)C(=O)N[C@@H](CC(C)C)C(=O)N[C@@H](CC(C)C)C(=O)N[C@@H](CO)C(=O)N[C@@H](C)C(N)=O)[C@@H](C)CC)C(=O)O) [H-HSQGTFTSDYSRYLDE-K(Hexadecanoyl-isoGlu)-RARDFIEWLLSA-NH2 [Compound 7]]	0.06 nM	0.06 nM
